Test results from US20150232539.

Assays:
[1] = biological target: in vitro isoaspartyl-converted recombinant HuD N-terminal fragment (amino acids 1-117, wildtype) (UniProt P26378)
[2] = biological target: HuD N-terminal fragment (1-117) in which the 8 N and D residues in the 36-amino acid flexible region were mutated to Q and E (UniProt P26378)
[3] = biological target: native recombinant HuD N-terminal fragment (amino acids 1-117, wildtype, day 0, not converted) (UniProt P26378)
[4] = biological target: HuD RRM1 lacking the N-terminal 36 amino acids (37-117 aa) (UniProt P26378)
Sequence of HuD RRM1 lacking the N-terminal 36 amino acids (37-117 aa) (P26378 37-117): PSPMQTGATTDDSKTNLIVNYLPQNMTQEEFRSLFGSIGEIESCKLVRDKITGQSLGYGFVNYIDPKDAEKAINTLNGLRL

[5] = test system: synapsin (isoaspartyl-converted, positive control)

Sequence of in vitro isoaspartyl-converted recombinant HuD N-terminal fragment (amino acids 1-117, wildtype) (P26378 whole entry, looked up, the tested form may be a part): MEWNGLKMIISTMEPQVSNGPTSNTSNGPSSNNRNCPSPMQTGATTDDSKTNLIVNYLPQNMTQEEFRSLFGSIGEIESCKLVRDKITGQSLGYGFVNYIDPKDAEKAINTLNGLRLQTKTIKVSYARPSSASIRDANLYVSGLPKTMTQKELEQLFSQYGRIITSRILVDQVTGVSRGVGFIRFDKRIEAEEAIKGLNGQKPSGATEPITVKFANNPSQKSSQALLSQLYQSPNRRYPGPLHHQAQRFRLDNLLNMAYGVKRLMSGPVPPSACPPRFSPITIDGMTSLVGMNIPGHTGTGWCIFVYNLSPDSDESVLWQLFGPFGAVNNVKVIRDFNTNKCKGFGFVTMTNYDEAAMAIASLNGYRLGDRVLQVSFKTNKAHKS
Sequence of native recombinant HuD N-terminal fragment (amino acids 1-117, wildtype, day 0, not converted) (P26378 other isoform, or with tags, fused parts or gaps): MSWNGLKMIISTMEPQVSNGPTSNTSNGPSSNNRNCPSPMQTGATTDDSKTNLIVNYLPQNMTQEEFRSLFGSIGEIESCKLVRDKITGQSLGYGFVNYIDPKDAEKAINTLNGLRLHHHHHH
Sequence of HuD N-terminal fragment (1-117) in which the 8 N and D residues in the 36-amino acid flexible region were mutated to Q and E (P26378 other isoform, or with tags, fused parts or gaps, change not shown): as the sequence (P26378 other isoform, or with tags, fused parts or gaps) above

With “recombinant rat protein-L-isoaspartyl methyltransferase (PIMT)” the “PIMT-catalyzed [3H]-methyl incorporation from [3H]-AdoMet (autoradiography)” value (“PIMT-catalyzed [3H]-methyl incorporation” below) [1] was “followed by a strong increase in PIMT-mediated methylation over the seven day incubation”, the “on-blot methylation with [3H]-AdoMet by PIMT” value [2] was “Only the Day 3 and Day 7 samples from the original 117 amino acid fragment show above background labeling” and the “PIMT-catalyzed [3H]-methyl incorporation” value [3] was “HuD exhibited no reactivity at Day 0”. The “on-blot methylation with [3H]-AdoMet by PIMT” value [4] was “the RRM1 domain alone shows no signal above background when incubated under isoaspartylation conditions and then subjected to PIMT modification” and the “PIMT-catalyzed [3H]-methyl incorporation” value [5] was “Isoaspartyl-converted synapsin and HuD were visualized by methylation with [3H]-AdoMet by PIMT”.
